B1: humanized 5C1 H1L1 (antibody, V domains shown)
VH: QVQLVQSGAELKKPGSSVKVSCKASGYTFTNYWMNWVRQAPGQGLEWIGATNPNNGYTDYNQRFKDRATLTADKSTNTAYMELSSLRSEDTAVYYCARGGHLAYWGQGTLVTVSS
VL: DVVMTQSPLSLSVSPGEPASISCRSSQSLFHSKGNTYLHWYLQKPGQSPKLLINRVSNRFSGVPDRFSGSGSGTDFTLKISRVEAEDVGVYFCSQSAHVPWTFGGGTKVEIK
notes: The constant region is not specified
B2: humanized 5C1 H3L1 (antibody, V domains shown)
VH: QVQLVQSGAELKKPGSSVKVSCKASGYTFTNYWMNWVRQAPGQGLEWIGATNPNNGYTDYNQRFKDRATLTADKSTNTAYMELSSLRSEDTAVYFCASGGHLAYWGQGTLVTVSS
VL: DVVMTQSPLSLSVSPGEPASISCRSSQSLFHSKGNTYLHWYLQKPGQSPKLLINRVSNRFSGVPDRFSGSGSGTDFTLKISRVEAEDVGVYFCSQSAHVPWTFGGGTKVEIK
notes: as for B1
B3: humanized 5C1 H3L3 (antibody, V domains shown)
VH: QVQLVQSGAELKKPGSSVKVSCKASGYTFTNYWMNWVRQAPGQGLEWIGATNPNNGYTDYNQRFKDRATLTADKSTNTAYMELSSLRSEDTAVYFCASGGHLAYWGQGTLVTVSS
VL: DVVMTQSPLSLSVSPGEPASISCRSSQSLFHSKGNTYLHWYLQKPGQSPQLLINRVSNRFSGVPDRFSGSGSGTDFTLKISRVEAEDVGVYFCSQSAHVPWTFGGGTKVEIK
notes: as for B1
B4: humanized 5C1 H4L3 (antibody, V domains shown)
VH: QVQLVQSGAELKKPGSSVKVSCKASGYTFTNYWMNWVRQAPGQGLEWIGATNPNNGYTDYNQRFKDRATLTADKSTNTAYMELSSLRSEDTAVYYCASGGHLAYWGQGTLVTVSS
VL: DVVMTQSPLSLSVSPGEPASISCRSSQSLFHSKGNTYLHWYLQKPGQSPQLLINRVSNRFSGVPDRFSGSGSGTDFTLKISRVEAEDVGVYFCSQSAHVPWTFGGGTKVEIK
notes: The human constant region is not specified; also called h5C1_H4L3
B5: murine 5C1 antibody (antibody, mouse IgG1, V domains shown)
VH: QVQLQQSGAELAKPGTSVQMSCKASGYTFTNYWMNWIKARPGQGLEWIGATNPNNGYTDYNQRFKDKAILTADKSSNTAYMHLSSLTSEDSAVYFCASGGHLAYWGQGTVVTVSA
VL: DVVMTQIPLYLSVSPGDQASISCRSSQSLFHSKGNTYLHWYLQKPGQSPKLLINRVSNRFSGVPDRFSGSGSGTDFTLKISGVEAEDLGVYFCSQSAHVPWTFGGGTKLEIR
notes: also called m5C1; mouse 5C1
B6: chimeric 5C1 antibody (antibody, V domains shown)
VH: QVQLQQSGAELAKPGTSVQMSCKASGYTFTNYWMNWIKARPGQGLEWIGATNPNNGYTDYNQRFKDKAILTADKSSNTAYMHLSSLTSEDSAVYFCASGGHLAYWGQGTVVTVSA
VL: DVVMTQIPLYLSVSPGDQASISCRSSQSLFHSKGNTYLHWYLQKPGQSPKLLINRVSNRFSGVPDRFSGSGSGTDFTLKISGVEAEDLGVYFCSQSAHVPWTFGGGTKLEIR
notes: also called Ch5C1
B7: humanized 5C1 H5L4 (antibody, V domains shown)
VH: QVQLVQSGAELKKPGSSVKVSCKASGYTFTNYWMNWVRQAPGQGLEWIGATNPNNGYTDYNQRFKDRVTITADKSTNTAYMELSSLRSEDTAVYYCASGGHLAYWGQGTLVTVSS
VL: DIVMTQSPLSLSVSPGEPASISCRSSQSLFHSKGNTYLHWYLQKPGQSPQLLIYRVSNRFSGVPDRFSGSGSGTDFTLKISRVEAEDVGVYFCSQSAHVPWTFGGGTKVEIK
notes: The human constant region is not specified; also called h5C1_H5L4
B8: humanized 5C1 H3L4 (antibody, V domains shown)
VH: QVQLVQSGAELKKPGSSVKVSCKASGYTFTNYWMNWVRQAPGQGLEWIGATNPNNGYTDYNQRFKDRATLTADKSTNTAYMELSSLRSEDTAVYFCASGGHLAYWGQGTLVTVSS
VL: DIVMTQSPLSLSVSPGEPASISCRSSQSLFHSKGNTYLHWYLQKPGQSPQLLIYRVSNRFSGVPDRFSGSGSGTDFTLKISRVEAEDVGVYFCSQSAHVPWTFGGGTKVEIK
notes: It was captured on an anti-human IgG chip, so it carries a human constant region, which is not specified; also called h5C1_H3L4
B9: humanized 5C1 H4L4 (antibody, V domains shown)
VH: QVQLVQSGAELKKPGSSVKVSCKASGYTFTNYWMNWVRQAPGQGLEWIGATNPNNGYTDYNQRFKDRATLTADKSTNTAYMELSSLRSEDTAVYYCASGGHLAYWGQGTLVTVSS
VL: DIVMTQSPLSLSVSPGEPASISCRSSQSLFHSKGNTYLHWYLQKPGQSPQLLIYRVSNRFSGVPDRFSGSGSGTDFTLKISRVEAEDVGVYFCSQSAHVPWTFGGGTKVEIK
notes: The human constant region is not specified; also called h5C1_H4L4
B10: humanized 5C1 H5L3 (antibody, V domains shown)
VH: QVQLVQSGAELKKPGSSVKVSCKASGYTFTNYWMNWVRQAPGQGLEWIGATNPNNGYTDYNQRFKDRVTITADKSTNTAYMELSSLRSEDTAVYYCASGGHLAYWGQGTLVTVSS
VL: DVVMTQSPLSLSVSPGEPASISCRSSQSLFHSKGNTYLHWYLQKPGQSPQLLINRVSNRFSGVPDRFSGSGSGTDFTLKISRVEAEDVGVYFCSQSAHVPWTFGGGTKVEIK
notes: The human constant region is not specified; also called h5C1_H5L3

The values that follow come from patent publication US20190315843A1 (PROTHENA BIOSCIENCES, published 2019).

The target in the first test is T1, wildtype human α-synuclein (human, UniProt P37840 1-140). Kind of test: ELISA on α-synuclein, twofold dilution series of the antibody.
Turning to B1, the binding result was “no binding (tested: 1000 (x axis has no unit))”.

For the molecule B2, the binding result was “binds”.

In the case of B3, the binding result is listed as “binds”.

In a further test the target is T1, wildtype human α-synuclein. Kind of test: SPR (Biacore), antibody captured on anti-human IgG chip, alpha synuclein flowed over, 1:1 model, global fit.
Description: An anti-human IgG CMS Biacore chip was prepared following the protocol supplied by GE Healthcare.
Data was collected and double reference subtracted to account for drift and a small amount of nonspecific binding. The data was analyzed using BIAcore evaluation software using a 1:1 model and a global fit.
With B4, binding was characterised by a dissociation constant (Kd) of 0.12 µM and the koff – broadly, a measure of how fast the partners let go of each other – turned out to be 0.0051 s⁻¹.

For B5, the dissociation constant (Kd) (usually a measure of binding affinity in units of concentration) turned out to be 0.0687 µM, the koff turned out to be 0.0051 s⁻¹ and the on-rate constant (kon) (commonly the rate constant with which the complex forms) is 75000 M⁻¹ s⁻¹.

The molecule B6 registered a Kd of 0.086 µM and a koff of 0.0053 s⁻¹.

In turn, B7 came in with a Kd of 1.06 µM.

For B8, the Kd was found to be 1.24 µM. The Kd values of the last two molecules are within 1.5-fold of each other.

Molecule B9 yielded an equilibrium dissociation constant (Kd) of 0.601 µM. This Kd is about 2.1-fold lower than that of the molecule before.

B10 showed a Kd of 0.283 µM.
